Data taken from US20250304624A1 (published 2025).
Positions of bridges follow the written chain, without caps; N, C: chain ends. Non-standard residues stand in square brackets, D forms with d. Groups on a side chain read outwards from the residue. *: point of attachment. PEG12 = NCCOCCOCCOCCOCCOCCOCCOCCOCCOCCOCCOCCOCCC(=O)O; Dip = N[C@H](C(=O)O)C(c1ccccc1)c1ccccc1; Palmitoyl = CCCCCCCCCCCCCCCC(=O)*; Isovaleryl = CC(C)CC(=O)*

Molecular target: T1, human ferroportin (SLC40A1) fused in frame with GFP, stably expressed in HEK293 cells (human, UniProt Q9NP59 1-571)
T1 sequence (looked up): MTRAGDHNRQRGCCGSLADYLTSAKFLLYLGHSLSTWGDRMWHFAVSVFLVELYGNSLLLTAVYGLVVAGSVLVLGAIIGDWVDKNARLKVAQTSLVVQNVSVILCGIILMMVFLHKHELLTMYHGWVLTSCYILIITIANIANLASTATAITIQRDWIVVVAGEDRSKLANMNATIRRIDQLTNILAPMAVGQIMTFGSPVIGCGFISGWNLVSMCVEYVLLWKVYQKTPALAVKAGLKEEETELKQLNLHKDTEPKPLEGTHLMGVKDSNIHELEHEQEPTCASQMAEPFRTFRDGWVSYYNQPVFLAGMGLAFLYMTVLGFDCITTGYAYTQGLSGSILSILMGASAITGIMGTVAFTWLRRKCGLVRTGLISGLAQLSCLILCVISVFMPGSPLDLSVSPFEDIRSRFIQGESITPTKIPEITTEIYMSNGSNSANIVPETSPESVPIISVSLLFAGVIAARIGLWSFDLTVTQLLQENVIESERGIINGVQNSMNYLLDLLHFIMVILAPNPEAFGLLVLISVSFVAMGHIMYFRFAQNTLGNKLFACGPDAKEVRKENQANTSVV
Test: cell-based or functional assay

- FPN IC50: 69 nM
Binder: Isovaleryl-DIH[Dip]PCI[dK]FK([PEG12-Palmitoyl])[dK]C-NH2 (disulfide 6-12 (inferred)) [Compd ID 130]
